Data on four molecules can be found in patent US20130018172A1, “Metal Abstraction Peptide and Uses Thereof” (Echogen, Inc., priority 2011, published 2013).

Substitutions are numbered along the chain they refer to. Names may count otherwise.

A short description of series [1]: ICP-MS of metal bound to purified PRL-1 variants (Ni). It is filed as binding. The settings on record: for Ni bound, ICP-MS: PRL-1 variants purified on Ni-IMAC, analyzed in parallel. On the procedure:
Because the histidine mutant retained tight binding, mutations at C170 and/or C171 were made.
(§1) ICP-MS was used to characterize the bound metal. Purified protein samples were digested in concentrated nitric acid in PFA microcentrifuge tubes (Savillex, #s 7240, 7241) at 68±1° C. for 16.5±0.7 hours. Based on protein quantification prior to digestion, the sample was then diluted to 1.5 μM in 20 mM ammonium bicarbonate, pH 8.2, filtered through a 0.2 μm nylon filter, and injected into a VG Elemental VGII+XS Inductively-Coupled Plasma-Mass Spectrometer fitted with a microconcentric nebulizer. A minimum of two separately prepared samples were analyzed for each protein variant. Each sample was scanned twice and standards were run before, between, and after each sample scan. Drift was monitored during washes between scans of both sample and standard injections.
To confirm that the chromophore arises from protein abstraction of the metal from the charged IMAC matrix, samples were subjected to ICP-MS for semi-quantitative analysis. As extensive washing is used to remove background metals, the values obtained from this method inherently underestimate the amount of metal bound, but can be used to assess the relative affinity of different metals for the protein. Additionally, to identify an endogenous metal ligand that may have been bound to PRL-1 during expression in the cells, ICP-MS was used to look for the presence of a transition metal from the first two rows in the periodic table as well as other common biologically relevant metals. […] On average 500 μM Ni-purified protein samples were digested in nitric acid for 16 h at 70° C. were determined to contain approximately 180 μM Ni, yielding a Ni to protein stoichiometry of 1:2.7+/−0.7. Zn was also detected in the Ni-purified samples at approximately 60 μM. […] Because ICP-MS analysis is conducted in a flow of Ar and the most abundant isotope of Ar has the same mass as Ca, Ca binding cannot be determined from the primary mass signal. Nonetheless, because a much higher amount of Ca was present in the cell culture media compared to Zn and yet the ICP-MS signal corresponds largely to zinc, the protein is unlikely to bind calcium.

The nature of series [2]: Metal displacement from Ni-purified PRL-1 (EDTA exchange, guanidinium hydrochloride and heat). It is filed as physicochemical. As for the experimental part:
UV-Vis absorption spectra were used to measure the concentration of the PRL-1 protein. The concentrations of purified PRL-1 analogs were measured at 280 nm and calculated using an extinction coefficient of 19420 M^−1 cm^−1. Because of possible metal-protein absorption interferences in the high 200 nm region, the validity of the UV-Vis quantification method was confirmed by the Bradford method. Spectra of PRL-1 analogs at concentrations of 10, 5, 2.5, and 1.25 mg/mL were collected on a Cary 100 UV-Vis spectrophotometer from 800 to 200 nm. […] The resulting spectra were resolved and peak positions were evaluated using GRAMS/AI 7.00 software. Three methods were aimed at metal displacement. In the first, PRL-1-WT (e.g., wild type) samples were reduced using 20 mM β-mercaptoethanol (BME), and imidazole was added to a concentration of 10 mM. For 0.5 mM protein samples, this corresponds to 400-fold solution excess of BME to compete with the two C-terminal cysteine thiols and a 200-fold solution excess of imidazole to compete with the single C-terminal histidine imidazole side chain. New baselines were taken and the spectra recalculated. In the second method, baselines were recalculated for buffer containing 100 μM EDTA, and the spectrum for the PRL-1-WT sample that was exchanged ten million fold in 100 μM EDTA was recorded. Finally, 10 mg/mL protein samples were denatured in 5.6 M guanidinium hydrochloride and heated to 90° C., new baselines were taken, and the spectra were collected at 0, 2, 4 and 6 hrs.
Ni binding in PRL-1 was not affected by reduction of the disulfide bond at PRL-1's active site. […] Subtraction of the reduced spectrum from the oxidized confirms that there was no significant difference in metal coordination between the reduced and oxidized WT samples. To examine whether a small contribution from a His is made, additional imidazole was added to the solution to increase the signal strength of a transient association. […] Additionally, no spectral change was observed when the Ni-purified sample was reduced in the presence of imidazole. […]

Series [3] can be described thus: ICP-MS of metal bound to purified PRL-1 (Zn). In kind it is binding. As for the experimental part:
as §1
To confirm that the chromophore arises from protein abstraction of the metal from the charged IMAC matrix, samples were subjected to ICP-MS for semi-quantitative analysis. […] On average 500 μM Ni-purified protein samples were digested in nitric acid for 16 h at 70° C. were determined to contain approximately 180 μM Ni, yielding a Ni to protein stoichiometry of 1:2.7+/−0.7. Zn was also detected in the Ni-purified samples at approximately 60 μM. […] Because ICP-MS analysis is conducted in a flow of Ar and the most abundant isotope of Ar has the same mass as Ca, Ca binding cannot be determined from the primary mass signal. […]

A short description of series [4]: Solubility of PRL-1 on loss of metal. It is filed as physicochemical. Particulars: metal-free protein.
A short description of series [5]: UV-Vis absorption spectroscopy of Ni coordination by PRL-1 variants. It is filed as binding. Particulars: relative to wild-type, Ni-purified. As for the experimental part:
UV-Vis absorption spectra were used to measure the concentration of the PRL-1 protein. The concentrations of purified PRL-1 analogs were measured at 280 nm and calculated using an extinction coefficient of 19420 M^−1 cm^−1. Because of possible metal-protein absorption interferences in the high 200 nm region, the validity of the UV-Vis quantification method was confirmed by the Bradford method. Spectra of PRL-1 analogs at concentrations of 10, 5, 2.5, and 1.25 mg/mL were collected on a Cary 100 UV-Vis spectrophotometer from 800 to 200 nm. […] The resulting spectra were resolved and peak positions were evaluated using GRAMS/AI 7.00 software. Three methods were aimed at metal displacement. […] In the second method, baselines were recalculated for buffer containing 100 μM EDTA, and the spectrum for the PRL-1-WT sample that was exchanged ten million fold in 100 μM EDTA was recorded. […]
Accordingly, characterization of metal coordination by PRL-1 was determined with UV-Vis absorption spectroscopy. The metal coordination geometry employed by PRL-1 and its mutants was analyzed using UV-Vis absorption spectroscopy at 800-200 nm. Absorption spectra of PRL-1 produced peaks at 280 and 220 nm, which arise from aromatic and peptide bonds within the protein and correspond well with the concentration determined using the Bradford assay. […]

B1: PRL-1: recombinant human PRL-1 (phosphatase of regenerating liver) wild type, C-terminal NCC motif (protein, UniProt Q93096 1-170, looked up)
Protein tyrosine phosphatase …: MARMNRPAPVEVTYKNMRFLITHNPTNATLNKFIEELKKYGVTTIVRVCEATYDTTLVEKEGIHVLDWPFDDGAPPSNQIVDDWLSLVKIKFREEPGCCIAVHCVAGLGRAPVLVALALIEGGMKYEDAVQFIRQKRRGAFNSKQLLYLEKYRPKMRLRFKDSNGHRNNC
Take B1: the “Ni bound, ICP-MS” value in series [1] was “approximately 120 μM”. In series [1] (Zn-IMAC purified), the “Ni level in Zn-IMAC purified protein, ICP-MS” value is on record as “only background levels”. Also, in series [1] (on average 500 μM Ni-purified protein, digested in nitric acid 16 h at 70° C., semi-quantitative), the “Ni content of Ni-purified protein samples, ICP-MS” value was “approximately 180 μM”. Moreover, the “loss of peaks at 318, 421 and 526 nm (Ni release)” value in series [2] (5.6 M guanidinium hydrochloride at 90° C.) is reported as “only gradually disappeared over 6 hrs”. Also, the “reversibility of Ni binding” value in series [2] (pH 7.4) is given as “irreversible”. Besides, the “effect of EDTA exchange on the absorption spectrum” value in series [2] (ten million-fold exchange into buffer containing 100 μM EDTA) was “little effect on the spectrum”. Further, in series [3] (Ni-IMAC purified), the “Zn detected in Ni-purified samples, ICP-MS” value is given as “approximately 60 μM”. For the same molecule, the “Zn content after Zn-IMAC purification, ICP-MS” value in series [3] (Zn-IMAC purified) is 270 µM.

B2: PRL-1-C170S: PRL-1 mutant, cysteine 170 replaced by serine (protein, UniProt Q93096 1-170, looked up, variant C170S)
Protein tyrosine phosphatase …: B1 Protein tyrosine phosphatase … with C170S
B2: the “Ni bound, ICP-MS” value in series [1] is reported as “No Ni was detected”.

B3: Apo PRL-1: PRL-1 without bound metal (protein, UniProt Q93096 1-170, looked up)
Protein tyrosine phosphatase …: B1 Protein tyrosine phosphatase …
modifications: metal-free
Take B3: the solubility entry in series [4] was “poorly soluble”.

B4: PRL-1-H166A: PRL-1 mutant, histidine 166 of the NGH motif replaced by alanine (protein, UniProt Q93096 1-170, looked up, variant H166A)
Protein tyrosine phosphatase …: B1 Protein tyrosine phosphatase … with H166A
As to B4, the “Ni bound, ICP-MS” value in series [1] was roughly 60 µM. Besides, the “decrease in signal measured by absorption spectroscopy” value in series [5] came out at 20%.
